Measured values published in patent US20070197430A1, “Conjugates And Therapeutic Uses Thereof” (priority 2004, published 2007).
Bridge positions count the residues as written; N and C are the ends. Peptide text beside a SMILES is read from it.

Tests used:
[1] = test system: pre-B tumor cells from E-mu myc transgenic mice; assay: Cell viability by propidium iodide exclusion, flow cytometry; type: cell-based; conditions: Mus musculus, 24 h, read-out: % viable cells at 24 hours
Procedure: After 24 hours incubation at 37° C. in 5% CO2, the cells were washed with PBS and 50 μL of 100 μg/mL solution of propidium iodide was added to each well. The cells were analyzed by flow cytometry (BD Facscan) and the viable cells denoted as the percentage of cells excluding propidium iodide.

[2] = Circular dichroism, alpha-helical content of peptides; type: physicochemical; conditions: 30% aqueous trifluoroethanol
Procedure: Circular dichroism spectra were obtained using a Jasco Model J-710 spetropolarimeter at 20° C. using the following parameters: path length, 2 mm; step resolution, 0.1 nm; speed, 20 nm/min, accumulation, 4; response, 1 second; bandwidth, 1.0 nm. The peptides were analysed at a concentration of 0.5 mg/mL in 30% aqueous TFE. The alpha-helical content of the peptides were determined by methods described in Yang et al (1986), involving comparisons of spectra with model helical peptides.

Bcl-w ΔC29 = target: T1, Bcl-w ΔC29 (Homo sapiens, UniProt Q92843); assay: Alphascreen GST competition assay with biotinylated Bim BH3-26 peptide; type: binding; conditions: Examples 8 and 9
T1 sequence (Q92843 1-164 limits assumed): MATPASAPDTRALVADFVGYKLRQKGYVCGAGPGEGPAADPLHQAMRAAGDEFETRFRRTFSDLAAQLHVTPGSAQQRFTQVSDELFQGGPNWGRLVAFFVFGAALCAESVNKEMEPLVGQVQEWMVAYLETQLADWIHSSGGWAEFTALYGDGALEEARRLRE

Bcl-xL ΔC25 [3] = target: T2, Bcl-xL ΔC25 (Homo sapiens, UniProt Q07817); assay: SPR, Biacore S51, direct binding
Mcl-1 ΔC23 [4] = target: Mcl-1 ΔC23 (UniProt Q07820); assay: SPR, Biacore S51, direct binding
[5] = target: 6-His tagged Bcl w delta C10 protein (UniProt Q92843); assay: competition assay; competitor: biotinylated Bim-BH3 peptide
Bcl-2 ΔC22 = Bcl-2 ΔC22 (Homo sapiens, UniProt P10415); assay: as above
[6] = target: GST tagged Bcl w delta C29 protein (UniProt Q92843); assay: as above
Mcl-1 ΔC23 [7] = target: Mcl-1 ΔC23 (UniProt Q07820); assay: AlphaScreen GST detection; competitor: biotinylated BakBH3 peptide
Bcl-xL ΔC25 [8] = target: T2, Bcl-xL ΔC25; assay: AlphaScreen GST detection; competitor: biotinylated BimBH3 peptide
[9] = target: GST tagged Bcl w delta C29 protein (UniProt Q92843); assay: as above
Mcl-1 ΔC23 [10] = target: Mcl-1 ΔC23 (UniProt Q07820); assay: AlphaScreen GST detection; competitor: biotinylated BakBH3 peptide; second of two values
Bcl-xL ΔC25 [11] = target: T2, Bcl-xL ΔC25; assay: AlphaScreen GST detection; competitor: biotinylated BimBH3 peptide; second of two values
[12] = target: GST tagged Bcl w delta C29 protein (UniProt Q92843); assay: as above
[13] = target: GST tagged Bcl w delta C29 protein (UniProt Q92843); assay: competition assay; competitor: biotinylated BIM-BH3 peptide
[14] = target: GST tagged Bcl w delta C29 protein (UniProt Q92843); assay: competition assay; competitor: biotinylated Bim BH3 peptide
[15] = target: GST tagged Bcl w delta C29 protein (UniProt Q92843); assay: competition assay; compared with the linear 16-mer

COc1cc([C@@H]2c3cc4c(cc3[C@@H](O[C@@H]3O[C@@H]5CO[C@@H](C)O[C@H]5[C@H](O)[C@H]3O)[C@H]3COC(=O)[C@H]23)OCO4)cc(OC)c1O [Etoposide]
viability at 0.015 µM ([1]; concentration 0.015 μM): 80%
viability at 0.0312 µM ([1]; concentration 0.0312 μM): 50%
viability at 0.0625 µM ([1]; concentration 0.0625 μM): 21%
viability at 0.125 µM ([1]; concentration 0.125 μM): 0%
viability at 0.25 µM ([1]; concentration 0.25 μM): 0%
viability at 0.5 µM ([1]; concentration 0.5 μM): 0%
viability at 1 µM ([1]; concentration 1.0 μM): 0%

CC[C@H](C)[C@H](NC(C)=O)C(=O)N[C@@H](C)C(=O)N[C@@H](CCC(N)=O)C(=O)N[C@H]1CCC(=O)NCC(=O)NCCNC(=O)CC[C@@H](C(=O)N[C@@H](Cc2ccccc2)C(N)=O)NC(=O)[C@H](CC(=O)O)NC(=O)CNC(=O)[C@H]([C@@H](C)CC)NC(=O)[C@H](CCCNC(=N)N)NC(=O)[C@H](CCCNC(=N)N)NC(=O)[C@H](CC(C)C)NC1=O [D, Ac-IAQ-E-LRRIGD-E-F-NH2] (HELM PEPTIDE1{[ac].I.A.Q.E.L.R.R.I.G.D.E.F.[am]}|CHEM1{[O=C(CN[*:1])NCCN[*:2]]}$PEPTIDE1,CHEM1,5:R3-1:R1|PEPTIDE1,CHEM1,12:R3-1:R2$$$V2.0)
% Helicity [2]: 16%

CC[C@H](C)[C@H](NC(C)=O)C(=O)N[C@@H](Cc1ccccc1)C(=O)N[C@H](C(=O)N[C@@H](C)C(=O)N[C@@H](CCC(N)=O)C(=O)N[C@@H](CCC(=O)O)C(=O)N[C@@H](CC(C)C)C(=O)N[C@@H](CCCNC(=N)N)C(=O)N[C@@H](CCCNC(=N)N)C(=O)N[C@H](C(=O)NCC(=O)N[C@@H](CC(=O)O)C(=O)N[C@@H](CCC(=O)O)C(=O)N[C@@H](Cc1ccccc1)C(=O)N[C@@H](CC(N)=O)C(=O)N[C@@H](C)C(N)=O)[C@@H](C)CC)[C@@H](C)CC [N] (Ac-IFIAQELRRIGDEFNA-NH2)
binding affinity for Bcl-w ΔC29 compared to the linear 16-mer, in words (Bcl-w ΔC29): drop in binding

B1: Acetyl-IAQ(E1)LRRIGD(E2)F-amide with a 1,5-diaminopentane linker (second position) (peptide)
peptide: Ac-IAQELRRIGDEF-NH2
modifications: linker 4-11 via 1,5‑diaminopentane
Kd (Bcl-xL ΔC25 [3]): 10 nM
Kd (Mcl-1 ΔC23 [4]): 10 nM
IC50 [5]: 65 nM
IC50 (Bcl-2 ΔC22): 290 nM
IC50 [6]: 150 nM
IC50 (Mcl-1 ΔC23 [7]): 3 nM
IC50 (Bcl-xL ΔC25 [8]): 57 nM
IC50 [9]: 40 nM
IC50 (Mcl-1 ΔC23 [10]): 3 nM
IC50 (Bcl-xL ΔC25 [11]): 54 nM
IC50 [12]: 34 nM

B2: Linear 12mer Ac-…-NH2 (peptide)
peptide: Ac-IAQELRRIGDEF-NH2
Kd (Bcl-xL ΔC25 [3]): 5200 nM
Kd (Mcl-1 ΔC23 [4]): 1200 nM
IC50 [5]: 870 nM
IC50 (Bcl-2 ΔC22): 240000 nM
IC50 [6]: 4700 nM
IC50 (Mcl-1 ΔC23 [7]): 400 nM
IC50 (Bcl-xL ΔC25 [8]): 7000 nM
IC50 [9]: 820 nM
IC50 (Mcl-1 ΔC23 [10]): 360 nM
IC50 (Bcl-xL ΔC25 [11]): 6300 nM
IC50 [12]: 800 nM

B3: L2 Ac-…-NH2 (peptide)
peptide: Ac-IAQQLRRIGDQF-NH2
Kd (Mcl-1 ΔC23 [4]): 920 nM
IC50 (Mcl-1 ΔC23 [7]): 650 nM
IC50 (Bcl-xL ΔC25 [8]): 960 nM
IC50 (Mcl-1 ΔC23 [10]): 660 nM
IC50 (Bcl-xL ΔC25 [11]): 890 nM

B4: Peptide C: Ac-IAQ-E-LRRIGD-E-F-NH2 with a 1,6-diaminohexane linker (peptide)
peptide: Ac-IAQELRRIGDEF-NH2
modifications: linker 4-11 via 1,6‑diaminohexane
IC50 [5]: 230 nM
IC50 (Bcl-2 ΔC22): 2600 nM
IC50 [6]: 120 nM

B5: Peptide D: Ac-IAQ-E-LRRIGD-E-F-NH2 with a -NHCH2C(═O)NHCH2CH2NH- linker (peptide)
peptide: IAQELRRIGDEF
HELM: PEPTIDE1{[ac].I.A.Q.E.L.R.R.I.G.D.E.F.[am]}|CHEM1{[O=C(CN[*:1])NCCN[*:2]]}$PEPTIDE1,CHEM1,5:R3-1:R1|PEPTIDE1,CHEM1,12:R3-1:R2$$$V2.0
SMILES: CC[C@H](C)[C@H](NC(C)=O)C(=O)N[C@@H](C)C(=O)N[C@@H](CCC(N)=O)C(=O)N[C@H]1CCC(=O)NCC(=O)NCCNC(=O)CC[C@@H](C(=O)N[C@@H](Cc2ccccc2)C(N)=O)NC(=O)[C@H](CC(=O)O)NC(=O)CNC(=O)[C@H]([C@@H](C)CC)NC(=O)[C@H](CCCNC(=N)N)NC(=O)[C@H](CCCNC(=N)N)NC(=O)[C@H](CC(C)C)NC1=O
IC50 [5]: 40 nM
IC50 (Bcl-2 ΔC22): 6900 nM
IC50 [6]: 160 nM

B6: linear 16-mer Ac-…-NH2 (peptide)
peptide: Ac-IWIAQELRRIGDEFNA-NH2
IC50 [13]: 2.5 nM
IC50 [14]: 2.5 nM

B7: Peptide E: constrained 16-mer with a pentane linker tethering the two glutamate residues (peptide)
peptide: Ac-IWIAQELRRIGDEFNA-NH2
modifications: linker 6-13 via 1,5‑diaminopentane
IC50 [13]: 0.5 nM

B8: Peptide F: constrained 16-mer with a -NHCH2C(═O)(CH2)2NH2- linker tethering the two glutamic acid residues (peptide)
peptide: Ac-IWIAQELRRIGDEFNA-NH2
modifications: linker 6-13 via ‑NHCH2C(═O)(CH2)2NH2‑
IC50 [13]: 0.3 nM

B9: Peptide I (linear) Ac-…-NH2 (peptide)
peptide: Ac-IWAAQELRRIGDEFNA-NH2
fold decrease in binding affinity against the linear 16-mer [15]: 100 fold
IC50 [14]: 360 nM

B10: Peptide J (linear) Ac-…-NH2 (peptide)
peptide: Ac-IWIAQEARRIGDEFNA-NH2
fold decrease in binding affinity against the linear 16-mer [15]: 1000 fold
IC50 [14]: 3700 nM

B11: Peptide K (linear) Ac-…-NH2 (peptide)
peptide: Ac-IWIAQELRRAGDEFNA-NH2
fold decrease in binding affinity against the linear 16-mer [15]: 3 fold
IC50 [14]: 7.3 nM

B12: Peptide L (linear) Ac-…-NH2 (peptide)
peptide: Ac-IWIAQELRRIGDEANA-NH2
fold decrease in binding affinity against the linear 16-mer [15]: 1000 fold
IC50 [14]: 3500 nM

B13: Peptide M (linear) Ac-…-NH2 (peptide)
peptide: Ac-IWAAQEARRAGDEANA-NH2
fold decrease in binding affinity against the linear 16-mer [15]: 25000 fold
IC50 [14]: 64000 nM

B14: Peptide R (linear) Ac-…-NH2 (peptide)
peptide: Ac-IWIAQELRRIGDEFAN-NH2
fold decrease in affinity against the linear 16-mer [15]: 4 to 5 fold
IC50 [14]: 12 nM

B15: Peptide U (linear) Ac-…-NH2 (peptide)
peptide: Ac-IWIAQELRRIGDEFNN-NH2
fold loss of binding affinity against the linear 16-mer [15]: 2 fold
IC50 [14]: 5.8 nM

B16: Peptide A of Example 7: Ac-E-IAQELR-E-IGDEF-NH2 with a 1,5-diaminopentane linker (first position) (peptide)
peptide: Ac-EIAQELREIGDEF-NH2
modifications: linker 1-8 via 1,5‑diaminopentane
IC50 [5]: 2600 nM
IC50 (Bcl-2 ΔC22): 26000 nM
IC50 [6]: 1800 nM
